# ± gives the half width of the 95% confidence interval.
# Key:
# [1] = folding stability dG unfold from trypsin proteolysis; higher = more stable
# Outline: (§1)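 Unfolding free energy was derived, per protease or combined, by relating Bayesian-fitted K50 values from sequencing counts to a sequence-predicted unfolded-state K50 and a shared folded-state K50. The underlying digests exposed cysteine-free mini-proteins under 80 residues, in a PA-tagged cDNA display construct, to trypsin and chymotrypsin at 11 threefold-diluted concentrations and to a no-protease condition. A filter kept only designs with AlphaFold2 dimer inter-PAE above 15.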
# [2] = folding stability dG unfold from chymotrypsin proteolysis; higher = more stable
# Outline: as §1
# [3] = folding stability dG unfold (combined trypsin and chymotrypsin); higher = more stable
# Outline: as §1
Sequence,folding stability dG unfold [1],folding stability dG unfold [2],folding stability dG unfold [3]
SAGMVVENPGTETRVVFDPETGELYVEVGDKVYRIPLPPGVEVEFEVDPEAGTIRVYFPNTGEVLELPLSAG [r5_858_TrMRF],4.19 ± 0.13 kcal/mol,3.38 ± 0.042 kcal/mol,3.63 ± 0.051 kcal/mol
SAGMVVVKVTLPGPEEALRAAAAAVPVPVSIERDPEKPDVWTATITFPSPELAPVFVEAFAALGAEVVGSAG [r14_745_JUSTAS],1.96 ± 0.041 kcal/mol,1.29 ± 0.041 kcal/mol,1.69 ± 0.069 kcal/mol
SAGNAKEIAKKIKIRIREFFAERFGFPDVEIDSVTIKDVDPKNGRVRVNITWWWPNGRPWKHEIEIPVDSAG [r5_20_TrROS],2.38 ± 0.048 kcal/mol,2.43 ± 0.072 kcal/mol,2.43 ± 0.11 kcal/mol
SAGNDEEDQKKAEEQQKPPLEIEPIRVMVMVPFPGGDLLISITIPIIKYPDGGIIIPIPIEIIPLEDISAGG [r19_11_TrROS],2.06 ± 0.093 kcal/mol,2.84 ± 0.085 kcal/mol,2.5 ± 0.1 kcal/mol
SAGNFNIKEQKETDGRRVIEIPMPGSGHEITIVFERNPDGPRKININMNGPMADYLREALPGIDRVEIISAG [r5_933_TrROS],0.187 ± 0.31 kcal/mol,0.275 ± 0.26 kcal/mol,0.213 ± 0.22 kcal/mol
SAGNIKIEDIEPNDDYYTLVIKAPENGRTIMIQYNPNNNRIPIMIFPPGGVRTIPIPMNDIEDFLKEILSAG [r5_769_TrROS],0.79 ± 0.086 kcal/mol,0.903 ± 0.049 kcal/mol,0.893 ± 0.22 kcal/mol
SAGNITIEWEEYEDYRVIKITIPYKSPQQAPEEIESIIRKLGFPPNMKIEDIEVDPEEGHVEITIYIKSAGG [r19_186_TrROS],3.85 ± 0.12 kcal/mol,4.65 ± 0.083 kcal/mol,4.47 ± 0.085 kcal/mol
SAGNKIEIEPVNYEPMPNGYYRVTARVTIENPNNKKPWDIDVEAYYPMDPNGQPMNVDEIAKEAIKKIFSAG [r5_604_TrROS],0.624 ± 0.098 kcal/mol,1.36 ± 0.11 kcal/mol,1.07 ± 0.24 kcal/mol
SAGNPVLLKRPFIDPENGEPVYELTLFDPESNIVTTLFFNSDGKVIAVAVAYVPPETDEVDIELSVFDGSAG [r5_747_TrMRF],1.52 ± 0.053 kcal/mol,1.36 ± 0.099 kcal/mol,1.47 ± 0.062 kcal/mol
SAGNRYEVNLTYMYPPDDPGLIEKIKKILRKLGWEIEKVKEQRMPDNKMRMVTHKIRIPGLPPEALKAFSAG [r14_956_TrROS],0.918 ± 0.16 kcal/mol,1.27 ± 0.23 kcal/mol,1.31 ± 0.37 kcal/mol
SAGNVIVVVNPETGEVVVVSFDELVRIVAVSSKTLVPEVRDVPRDKVLDFIKEAFPGPVEILEIKPAPVSAG [r5_519_TrMRF],1.02 ± 0.043 kcal/mol,1.22 ± 0.05 kcal/mol,1.19 ± 0.053 kcal/mol
SAGPADPGFLGTRTVPHPDGVVTVDVYRFAGTRVLITITLPDSTVPVEDPVESEEEALAFADAVVAEVGLSA [r9_758_JUSTAS],0.637 ± 0.081 kcal/mol,2.27 ± 0.037 kcal/mol,1.66 ± 0.1 kcal/mol
SAGPDKPLKIESIGGKFNPDNGVISIKLKVEDPGDGKTYDYTMQFPVRDPDNGKPYMFTFPMRIKVPDSAGG [r19_129_TrROS],0.645 ± 0.072 kcal/mol,0.647 ± 0.16 kcal/mol,0.607 ± 0.13 kcal/mol
SAGPEKVREAARELFEKLNLPIVSEEAIEVGDAVLIRFEIPEIGTKITILAPVFENGEIKVIVKIEPVSSAG [r5_888_TrMRF],1.71 ± 0.069 kcal/mol,1.58 ± 0.032 kcal/mol,1.65 ± 0.091 kcal/mol
SAGPIIIRVKYPDGRQIDINPENPWQIQIWDPGGKKETYPFDSNEDAKDKVVDWLGEEHGWPIKDVEIVSAG [r5_119_TrROS],0.373 ± 0.043 kcal/mol,0.35 ± 0.059 kcal/mol,0.403 ± 0.11 kcal/mol
SAGPKIRTIIKEILKELNPDRPIEIHTHPDGFIIIVNPDDGRFIMIKIDPDGDIKISEVVPAEEMKKMMSAG [r5_852_TrROS],1.84 ± 0.033 kcal/mol,1.17 ± 0.058 kcal/mol,1.49 ± 0.13 kcal/mol
SAGPKKKVEIDVHIMIPFKSWEDRELMLYYARKFAPYIARELAKQNGLPPGVDEVKVDVNIMIIPPGQMSAG [r5_436_TrROS],2.84 ± 0.12 kcal/mol,3.87 ± 0.04 kcal/mol,3.34 ± 0.12 kcal/mol
SAGPKTLLLNIPPGEDVELLIGDKPYRIKVDPERLIGYAFDPETGEIFLIFHDPEKPIALITVFPSPPLSAG [r5_302_TrMRF],1.56 ± 0.042 kcal/mol,2.46 ± 0.11 kcal/mol,2.18 ± 0.12 kcal/mol

Sequence,folding stability dG unfold [1],folding stability dG unfold [2],folding stability dG unfold [3]
SAGPPEQKIKIKWYPPDDGQPQEIPGPVDDIKDILDKLGWPVTNIETDPDDNEVEIWVPFPNWWLHIKISAG [r5_521_TrROS],0.884 ± 0.036 kcal/mol,1.79 ± 0.069 kcal/mol,1.53 ± 0.12 kcal/mol
SAGPPGMRMVPFTIELPGKKIEIHVMEYPNGPPQYMVEIEDPNGKPKWTIMVTGPEARDLLEKAGIKFSAGG [r19_90_TrROS],0.438 ± 0.1 kcal/mol,1.23 ± 0.14 kcal/mol,1.01 ± 0.1 kcal/mol
SAGPPGQPVKTIEIMIEFPPGQTMEEARERVEEIADEIQRKFPKIKSIDVDVQKDDDTYYVNANITIPYSAG [r5_446_TrROS],0.848 ± 0.048 kcal/mol,0.372 ± 0.19 kcal/mol,0.688 ± 0.19 kcal/mol
SAGPPKTRTVMFPPEDIPKILEELKKLPPDITIHFPDPDPGNWFMIEVTDDEIKIENPGNGEERTIPISAGG [r19_154_TrROS],-0.712 ± 0.24 kcal/mol,0.252 ± 0.11 kcal/mol,0.0412 ± 0.16 kcal/mol
SAGPPPWMVIRIPFWVKVTPDDGIITIEFKIEIGNKEFKIKITIPIPPELADAPPGETIPIPIWIFIRPSAG [r5_714_TrROS],3.99 ± 0.16 kcal/mol,5.13 ± 0.062 kcal/mol,4.81 ± 0.13 kcal/mol
SAGPSLEVEVERLPGPYVRITARYSRDVPVEVLVEELRAAAPVEVRVEEDPERDFVTVVAVLPLAPDAGSAG [r5_742_TrMRF],1.28 ± 0.031 kcal/mol,1.46 ± 0.069 kcal/mol,1.46 ± 0.08 kcal/mol
SAGPTIMIPMPPKESLEEAVEKAIEWIREFFPDNLKPGKKIKIFVHVWDPDNGKQYWVTIEIPIPKGELSAG [r5_916_TrROS],2.48 ± 0.22 kcal/mol,3.62 ± 0.057 kcal/mol,3.19 ± 0.25 kcal/mol
SAGPVLYRVTITVEVSSSGEKGKTLTLEFLVPPSVSGEEVRDRVLALLKAQGYKVEKITVTVTPLPSSASAG [r14_979_JUSTAS],4.03 ± 0.21 kcal/mol,5.36 ± 0.13 kcal/mol,5.27 ± 0.14 kcal/mol
SAGPVVLSPDDTVKIGKKELTFFSDGTVSVKYPDGTGESITVTVDPSSGNITLTETFTEPETGTTPVENSAG [r5_33_JUSTAS],0.473 ± 0.15 kcal/mol,1.48 ± 0.075 kcal/mol,1.17 ± 0.16 kcal/mol
SAGPVVTLTVTVEIEVDGVRVEVTVTATLLPDGTVVITATVKVTLPNGETKTVTVTLTFPPGVDEVVLTSAG [r5_829_TrROS_Hall],2.62 ± 0.15 kcal/mol,3.42 ± 0.18 kcal/mol,3.06 ± 0.25 kcal/mol
SAGPWITIPFKVKSLEEARNIIREIAQTFGLPMKVEDIQVTEDQLEKNREPGDPIRITVRYPNGREIEISAG [r5_503_TrROS],1.64 ± 0.065 kcal/mol,1.69 ± 0.11 kcal/mol,1.64 ± 0.11 kcal/mol
SAGQPGKPIRKYTFDLPDDDKITVEVYMYPDGNMMIKIEDNNGKERNIMIPANDLQNMPIEDLVKWLRSAGG [r19_47_TrROS],2.73 ± 0.12 kcal/mol,3.57 ± 0.062 kcal/mol,3.33 ± 0.36 kcal/mol
SAGSAEELKEKIREELRERLAKELGYPNIEIKKVEVLKYDPETGTITVKVELKLPDGKELTLTITVPVKSAG [r5_20_JUSTAS],4.27 ± 0.34 kcal/mol,3.63 ± 0.29 kcal/mol,3.9 ± 0.41 kcal/mol
SAGSASSIKPISSTLDVRTDPETGKPVKATVYTYVLPSDGSSKQVPVPLSKKEPINLSPSDSYVTETRESAG [r5_950_JUSTAS],-0.586 ± 0.17 kcal/mol,-0.274 ± 0.27 kcal/mol,-0.361 ± 0.22 kcal/mol
SAGSGPGETKLVEEVEIDPVGPIKDSNGNPRPIKVVTKKLVEVTILEDGTVEKKVLETVVETLPPDVPLSAG [r5_132_JUSTAS],-0.498 ± 0.23 kcal/mol,-0.575 ± 0.1 kcal/mol,-0.662 ± 0.51 kcal/mol
SAGSGVILRTPEGKYVPLSALSEEEIKTAIEDPLSPAPPVTVEVTVTSVRLPVPRTVTTTEVVVTVLGSAGG [r19_232_JUSTAS],-0.00526 ± 0.21 kcal/mol,0.233 ± 0.19 kcal/mol,0.115 ± 0.19 kcal/mol
SAGSIEAAVEALEKELREKGYKVSVELVETDPSDPNRLNLVIRVTVEGFSPESKPLGKKEETYVIEGGSAGG [r19_418_JUSTAS],1.12 ± 0.031 kcal/mol,1.45 ± 0.069 kcal/mol,1.28 ± 0.14 kcal/mol
SAGSIPELIREAFPSKVDRVEVTTEKLPNGTTKTTIKVYVDDPEVAERLAKEINELSGEPLENLTVTEESAG [r5_542_JUSTAS],0.0676 ± 0.11 kcal/mol,0.981 ± 0.039 kcal/mol,0.652 ± 0.13 kcal/mol

# Reference: the supplement of paper PMC12764529
